Test results published in the DeepSol protein solubility set.

Experiment: soluble on expression in E. coli; label from the status in PepcDB or PDB records

| Sequence | soluble on expression in E. coli |
| --- | --- |
| APTAPSIDMYGSNNLQFSKIELAMETTSGYNDMVKYHELAKIKVKFNQWSGTSGDTYNVYFDGVKVATGAITGSQTTASFEYGQGGLYQMEIEACDATGCSKSAPVEITIADTDGSHLKPLTMNVDPNNKSYNTDPSIVMGTYFVEWGIYGRDYTVDNMPVDNLTHILYGFIPICGPNESVKSVGGNSFNALQTACRGVNDYEVVIHDPWAAYQKSFPQAGHEYSTPIKGNYAMLMALKQRNPDLKIIPSIGGWTLSDPFYDFVDKKNRDTFVASVKKFLKTWKFYDGVDIDWEFPGGGGAAADKGDPVNDGPAYIALMRELRVMLDELEAETGRTYELTSAIGVGYDKIEDVDYADAVQYMDYIFAMTYDFYGGWNNVPGHQTALYCGSFMRPGQCDGGGVDENGEPYKGPAYTADNGIQLLLAQGVPANKLVLGTAMYGRGWEGVTPDTLTDPNDPMTGTATGKLKGSTAQGVWEDGVIDYKGIKSFMLGANNTGINGFEYGYDAQAEAPWVWNRSTGELITFDDHRSVLAKGNYAKSLGLAGLFSWEIDADNGDILNAMHEGMAGGVVTPPNRRSHHHHHH | soluble |
| MSSNLTSNEMSSTSAIVEPPEAVKGNERDKSTRRSTSQVVRPEKHEVENALEDQCSSSSLPKEAQYYAKLDKKLEGKDPRSQFYEAVRLSADIFAHKFEKAVCSRQTFEPTNSIIKVLNTAEEEMLHEKVVPLPVSSKLQYYLNRGRYDTIFDRDEQLQRTADPMADEPDHVEKRVTSILEQASREMEEGEVEPVFYDGSDEDQELPIDLGAMRNLQRTNKFAARSSRMAARRGGRPGYRGAFRGAARGAPSRRPAPAAEVAPETPVAAPMAPAAPAAPATPEAAPAAEVMDTSIATEMPQESAVDLSNVSAATEMDTSKEGEASRPTSEKKKKIRTTEMDRLMSMDLGPKDGGRVGELGHMWPESRRRPAAPLPETPAAQPRKSLPRRAAEKKKPEDSDAAEEQEVEMEVDNDASTSTPRNARGGRGGGNRRGSRRGQKRTSGGSGKLVEPKKEPVDEPAEKIPKRSEAAPEVPATATTKEAPPSTSSSPPDAPATPATPASSDSRDSPRKIRAMIFSLTGSPPESETPPVLQQEQVISTAAPTAGRHPNIIQQVPHINRIPPQPLRRLTAPQAPPASQPEEPPVQQTVPVVKVELASAPAPIVRDPQSTEPVPPAMPTLVENNHEATLILPPNKTSDYTRWNAQDLINWVRLLITNNVDSTIAIMVREEFDGETLACLVLDDDFRKEVPIPYGHYKKMKIYGTEVLNHYRTEKYQADLRKFHEELAAWKAQQR | not soluble |
| MGSDKIHHHHHHMAVTDKERKLAATLSDPVLWGQAYLYNRDGSGRDYWPHQVEDLRCPAKNIIHLDGRDVGKSIVLSTDALHYAFTTRGGQGLVAAPHQGHLDTIIEEIEFQLDTNPDLMNSIALTKYGKPKIHRKPYFRLEFTNGSVLYFRPAGAYGDAFRSLHVGRVWVDEGAWLTERAWKALRQCLKAGGTLRIYSTPNGLRDTTYYRLTSSEQFHVFRWPSWLNPLWTEDREAELLEFYGGRDSSGWQHEVAGEHGKPSYGAFNVEQFNLCRQDLLEYQKIVITDSELRDCDTEEAAHDRLEMLLNLTPRSGQFWVGGDLGYTNDPTEIVVFQEMEVGERTLLKMILRVHLEHVSYPHIAQIIALLERYYTPAGIGVDNGGNGLAVVQELLTLDKYKGLELEGRLKGYDFGGMTRLAVRDGKEIKKRTKELMTSLINGALQRKQLIFPSDDLEVEDQFTTHTYTLRDGKIIYSKGNDHIIDAVRCAMLIREEGNLDPVGEEVVSLKPVLTNPVFI | not soluble |
| MDKKTIYFICTGNSCRSQMAEGWGKEILGEGWNVYSAGIETHGVNPKAIEAMKEVDIDISNQTSDLIDNDILKQSDLVVTLCSDADNNCPILPPNVKKEHWGFDDPAGKEWSEFQRVRDEIKLAIEKFKLR | soluble |
| MGSDKIHHHHHHLKQKILHIIDSFSTGGAEVLLAGVIPELVDFEHVIVYLTPTKTPILSSDPTIKIVCLNFRSITDATRIIKDLNTIIEQEKPGIIHTHLYFSSLFIRFARTNKINIIQTYHNEYYRIRYPQFSARIKKIGLKLLDRFTMKNAYTVIHVSKAQQLVNDHDVRIKSSAVLYNYVEDQFYQTRKTSSFKGTGKLKIICVGNLKTEKNHILLLHALRQLMHLPIHVTICGEGNDYIMLQKYINRYDLPVTLMGSQKNIHELLGQHDLFVSCSIIEGFGISIAEAMASEIPLIISDISTFKEVTQNKAVFFESRNVASLAEKIEQFYLSPQSAAASVLACKEIAEQYKKSFYLDRLNTLYKK | not soluble |
